Our source for the Km values is paper PMC8058416, “Coordinated and High-Level Expression of Biosynthetic Pathway Genes Is Responsible for the Production of a Major Floral Scent Compound Methyl Benzoate in Hedychium coronarium” (Frontiers in Plant Science, 2021).

Substrate in data set [1]: O=C(O)c1ccccc1O
The data set is described as follows: GC-MS (SPME) of methyl salicylate formed, Michaelis-Menten fit. The class given is biochemical, Hedychium coronarium. Conditions: SAM co-substrate (2 mM in standard assay), 100 mM KCl; optimal reaction condition.

Substrate in data set [2]: O=C(O)c1ccccc1
The data set is described as follows: GC-MS (SPME) of methyl benzoate formed, Michaelis-Menten fit. The class given is biochemical, Hedychium coronarium. The conditions noted are these: SAM co-substrate (2 mM in standard assay), 100 mM KCl.

By Km is commonly meant the substrate concentration at which the rate is half of its maximum.

B1: HcBSMT2 (Hedychium coronarium) (protein)
chain: MGLKVEQALHMVGGSGETSYATNSRLQEKAIYRTKPVLATTIEEMYKGLLPEHMVVVDLGCSSGSNTFIVVSQVLDIIVELRRMMEMKKPLEVQFFLNDLPGNDFNYVFQSLDKFKNKVEEESKGELLVPYYVVGVAGSFYGRLFPCASVHFFHSSYCLMWLSQVPEELENDQGVSLNKGNIYWTETSSSQVEKAYREQYKKDFLTFLRSRYIELNIGGGMMLTFLGRRKRTPGHGDLCHLWRLLAEALNSMVLEEIIPEEKVSTFNLPIYGPSLEEVKSIIHHEGLFDLDRVEIFESSWDPFDDSGDDSFDLSNYTKSAKNVADCIRAVVEPLIVHQFGDVILDDLFTRYAQNVLKHLLKEKANHTILVIALKKRV
notes: full coding region in pET30a (EcoRI/NotI), E. coli Rosetta (DE3), Ni-NTA partially purified, His tag; 377 residues, 43 kDa predicted; Tyr157, Leu226, Trp242
With B1, the Km was found to be 26.73 ± 3.88 µM in data set [1] and 87.73 ± 7.03 µM in data set [2] (optimal condition (25 °C, optimum pH 6.5)).

B2: HcBSMT1 (Hedychium coronarium) (protein)
chain: MLPNTTIMEGEMSLKVEHALHMVGGTGETSYVANSRLQEKAIHQTKSLLAIAVEETYKALHSDQMVVVDLGCSSGPNTLLMLSHVLSVATKLPRRMELQFFLNDLPGNDFNCLFQSLEGFKKRLEGEIEGDLLVPYYVAGVAGSFYGRLFPRASVHLFHSSFCLMWLSQVPEGLKIEHGVPLNKGNIYWTETSLAKVEKAYQEQFQKDFSTFLKLRHTELNVGGRMVLVFVGRRKRTPGNGDFVHLYGLLGEALNSMVLEGIIQEEKVDTFNLPIYGASFEEVESVIHNEGVFDLDRAEIFESSWDPFDDSKDDIYAIPNYMRSGKNVANYIRAVVEPLIVHQFGTVILDDLFARYAHLVSKHLLKKKANHTILVFALKKKA
notes: full coding region in pET30a (EcoRI/NotI), E. coli Rosetta (DE3), Ni-NTA partially purified, His tag; 382 residues, 43 kDa predicted; Phe162, Val231, Tyr247
In the case of B2, the Km in data set [2] (optimal condition (25 °C, optimum pH 6.0)) is 1456.17 ± 163.13 µM.
